# Reference: the DeepSol protein solubility set
# Experiment: soluble on expression in E. coli; label from the status in PepcDB or PDB records
row,Sequence,soluble on expression in E. coli
1,MVLDIDMFRTEKGGNPEIIRKSQQDRFKDPKLVDEVIELDEKWRKERFVADQLNRQKNAISKAIGEKMKKKEPQGTDDSVADDIVARLAELKIDELSQLTVVQLKKLRVLVDEKSVQTAAAVIANENARHEKLIQIGNLIHSSVVVSKDEANNKIERTFGDLSTKKKYSHVDLVVMVDGFDGERGTVVAGGRGYFLKGPLVFLEQAIIQLALQRLNVKGYVPLYTPFFMRKEVMQEVAQLSQFDDELYKVSSKGSEIAGDTSVDEKYLIATSEQPIAAYHRNEWIKETELPIKYAGVSTCFRQEVGSHGRDTRGIFRVHQFEKIEQFVLCSPNDNESWTLFDEMIGNAESYYQELQIPYQVVNIVSGELNNAAAKKFDLEAWFPGSGAYRELVSCSNCLDYQSRRLKVRYGQTKKLSGEVPFVHMLNATMCATTRVICAILENNQTEEGINVPTAIQQWMPENYRTFIPFVKPAPIDEDAKKATGKK,not soluble
2,MVLEATVLVIDNSEYSRNGDFPRTRFEAQIDSVEFIFQAKRNSNPENTVGLISGAGANPRVLSTFTAEFGKILAGLHDTQIEGKLHMATALQIAQLTLKHRQNKVQHQRIVAFVCSPISDSRDELIRLAKTLKKNNVAVDIINFGEIEQNTELLDEFIAAVNNPQEETSHLLTVTPGPRLLYENIASSPIILEEGSSGMGAFGGSGGDSDANGTFMDFGVDPSMDPELAMALRLSMEEEQQRQERLRQQQQQQDQPEQSEQPEQHQDK,soluble
3,MVLKGDAKRIVAMSSTHIAMLDAIGEVRCITGVSGIDYISNPDIQARRDSIGDVGYEGNINYELLLSLDPDLVLLYGVNGASAMESKLEELDIPFMYVGDYLEESPLGKAEWMVVLSEVTGKREKGEKAFAAIPVRYNALKKKVADSTLGLEHHHHHH,not soluble
4,MVLLDNADRVVLLTEKERPRGRKIDISLTFLLPHDNWFSVEDGVSDHYFSRRGFLRASLLGVLCLRGIGSALATEFLEESYPVGRLSLRNIHTGEHLSVTYRTPDGEVDLDALNSINWLLRCHFTNQHTEMDLAVIEYLNMVDKVLGGGREFRIISGYRSPEYNRILSEHNGAVAKQSLHMEGKAIDIAVPGVSLAVLRDLAAGFRCGGVGYYPHSGFVHLDSGRFRTW,not soluble
5,MVLLHHQPLGSHHATTSGGSLLERADLSHPIPENARKLAQLVEYDESRVELGTHSVFVREARPPGAHYSKATVIFLHGQSFSSSTWTENNLLRTFAALGYRAIAIDLPGSGQTRGAAIPQAEKPNFLMDFIETLGLKQVMIVCASMAAQYVLPLMTSTRHLSCVVLVAPSNTHEVVSPSSYTVPTLVVWGERDTSLGPTAAANLKNLPQVKLQKIPDAGHACYLHNPKCFENLCVNFFDLIRSYHH,not soluble
6,MVLPKDVKWDLIRQFQRHEQDTGSPEVQIAILTERINRLTEHMKKHKKDIHSRRGLIAMVNKRRKLLEYLRETDYAKYLEVVQKLNLKVK,soluble
7,MVLQHQFDGLLEVMPENPRKKLRFTSRHIAAVNRYLDDKYFDPKEEKWSNLHPKYRIVLENLIRQTGPRLSPQVTLFLPNTFNGAFAPRQPFGLPSYFYHTCKKAESITQATHAMNQEYTVKMKNLNDQIDAYIYDTHLDILKVTEKRGDYLKNIPHDFGEHPDNPRNGQDNPKIELEHREILWNGLKVVLENGRFYETSTTETNVVEIFLNDELLNDKLYILKAEFFAAFYASEEATQIEVMVLFDNYFMAGGTIQYGEKLVCHLQEIPGTYGTTSFSCSSDFKSMVRKCGLPPIPRIGSPWNSDLMESIAELQQAIIRLENRVYDKDYIGKYTHENGGFIEAYCASLKNLSNTLYLLEEGTIELPAHSKNWTPREKLAYLSNFAPEKEMTSCEIGKPCASFKMIIGLAKSLRKNPYNFSFSGELLAEFSFQIRMAMLSMYLVLERNLPDAPHDNSQFVMTTLSHFRRLYIDNVKKIYQIFPHFPVEMRPVVLDVMCQRATPANYQEILEIYSYEPDMVTKMVQKYPYILLFTPHVTRPPIKLIRDFSEYMEKEMMSSEQAQMSRVDVIVLEENEPDGQESGVDYILARSNKRARVDFEKLDLLLESIMPEEAPARDYRKNTSEGHLAEIFGPTNNEEAEEEPSLPSCSYSTPKRVNRAKPALDSPSGNLRTANKDQVDLLDNVMQRSEKRQWKM,not soluble
8,MVMLTKCLSSKDNIMSLTCMPALFLGHGSPMNVLDDNDYTRAWRRLGEALPRPQAIVVVSAHWYTRGTGVTAMERPQTLHDFGGFPQALYDTHYPAPGSPALAQRLVELLAPVPVALDKEAWGFDHGSWGVLIKMYPNADIPMVQLSVDSTKPAAWHFEVGRKLATLRDEGVMLVASGNVVHNLRTVRWHGDNIPYPWAASFNDFVKANLTWQGPVEQHPLVNYLQHEGGALSNPTPEHFLPLLYVLGAWDGKEPITIPVDGIEMGSISMLSVQVGLEHHHHHH,not soluble
9,MVMRGNKMRGDKKIFKKRVERFQELLKENNIDGAVIRTLSSFIYFTGTKWLRPSLLIPAEGEPRVLVVKGEAELFKERSWIEDVVEYQKAEELMLTVVKWIRENEMKRVGLEFGIERDAYLIFYKIFLRLNPTVEVVDILDLTMKLRMIKDEWELDNIRKAGKIALKGMRVAEEEIKPGRTELEIAAEVTRELMLNGSEDPKVYVSVTPRAHAEPFRDLKVPENGVVTVVIGTDWNHYYANMARTFIIGDPGERVKKAIEVKKEAIKLALEETKVGVPISTVEKKIEQFFKERGFGDYHLSGYTHGVGLLIEEPPIATIVVPQRAAKIQENMVLSIIHPPLMLPEGAIKYENTYIVKKDGLERVT,soluble
10,MVPSRNGEGTELRGHMEIEKELALEKKTYGSHIKILILGGPLSGKSTIFKQMQIIHVDGFKTDQELIQYRGLIDNNIRDIYLQLIAGSRVVGIPLDPIEHITYEIDEIYAPMSDAFSVRTISELLEPLTEFWNSKQIQEIYKRRCEFELLDSTKYYLENLTRIADPTYLPNQEDIVHSRKATMSINSIVFEYTGVSLLMIDVGGQRSERKKWLHLFDDAKVVLFVIDLTGYAKRSEESRMELSRFPKFFRDVGSNAYDMKVALKIFNEVAAASALANAVFLLFFNKVDLFKEILSQVNLQPCFSKFDGENTYEETSKYICEKFIRAASSKKSVFPHFTTATNTENVKLVFRACMESVFKANAKATGLS,not soluble
11,MVQLSLSQVHQDQIYRHGERCYPEECCGLLLGKILIGENGHRHWQVVEVQPTENCWGDVEEFQQNNHQGNKLHYFAIDPKVLLSAQKDCRQKGLSIIGIFHSHPHGQPIPSEFDRAIAWPEYIYLIASGLEHHHHHH,not soluble
12,MVRDMKHTVEVMIPEAEIKARIAELGRQITERYKDSGSDMVLVGLLRGSFMFMADLCREVQVSHEVDFMTASSYGSGMSTTRDLKILKDLDEDIRGKDVLIVEDIIDSGNTLSKVREILSLREPKSLAICTLLDKPSRREVNVPVEFIGFSIPDEFVVGYGIDYAQRYRHLPYIGKVILLDE,soluble
13,MVRMYEERTATFHSMNEGVIAIDNRLVITIFNEKAKQIFEVQGDLIGKVIWEVLKDSRLPEIVERNKAVYNEEIRVSGKVIMSSRIPIVMKKKVIGAVAIFQDRTEAAKMAEELTGVRNFVEALRVQNHEHMNKLHTIAGLIQLGKSEKALQLAFQASTEQENVTEFLHRSIQNDAAAGLLLSKIRRGRELGIAVHIDENSSLQQFPEHVDQHDIVVLLGNLIENAFGSFETVQSEDKRIDISIEQTDDILAILIEDNGCGIEPTHMPRLYDKGFTVNKTGGTGYGLYLVKQIIDKGSGTIEVDSHAGQGTSFSIVFPMKGE,not soluble
14,MVRPYGIKVNKRKEREERYDKEEDEVEEQPKFEQKQKARESSKKAKKESTSRAEEDNDEEEVTVEATAAAEDIVGGIPIVLNAPNKEKSGIVFVLEKASLEVAKVGKTYQLLNSDDHANFLKKNNRNPADYRPDITHQALLMILDSPVNKAGRLKAVYVRTEKGVLFEVKPHVRIPRTFKRFAGIMLQLLQKLSITAVNSREKLLRCVKNPIEEHHLPVNSHRIGFSHSSEKLVNMQKHLATVCDDDRDTVFVVGAMAHGKIDCNYIDEFVSVSEYPLSAAYCISRICEALATNWNII,soluble
